Assay results from patent publication US5912120A, “Cloning, expression and diagnosis of human cytochrome P450 2C19: the principal determinant of s-mephenytoin metabolism” (The United States of America as represented by the …, priority 1994, dated 1999).

B1: 2C9: recombinant human cytochrome P450 2C9, allele not specified in the text (protein, UniProt P11712 1-490, looked up)
Cytochrome P450 2C9: MDSLVVLVLCLSCLLLLSLWRQSSGRGKLPPGPTPLPVIGNILQIGIKDISKSLTNLSKVYGPVFTLYFGLKPIVVLHGYEAVKEALIDLGEEFSGRGIFPLAERANRGFGIVFSNGKKWKEIRRFSLMTLRNFGMGKRSIEDRVQEEARCLVEELRKTKASPCDPTFILGCAPCNVICSIIFHKRFDYKDQQFLNLMEKLNENIKILSSPWIQICNNFSPIIDYFPGTHNKLLKNVAFMKSYILEKVKEHQESMDMNNPQDFIDCFLMKMEKEKHNQPSEFTIESLENTAVDLFGAGTETTSTTLRYALLLLLKHPEVTAKVQEEIERVIGRNRSPCMQDRSHMPYTDAVVHEVQRYIDLLPTSLPHAVTCDIKFRNYLIPKGTTILISLTSVLHDNKEFPNPEMFDPHHFLDEGGNFKKSKYFMPFSAGKRICVGEALAGMELFLFLTSILQNFNLKSLVDPKNLDTTPVVNGFASVPPFYQLCFIPV
B2: 2C9-Ile^359 (65): recombinant human P450 2C9 allelic variant, clone 65, expressed in yeast (protein, UniProt P11712 1-490, looked up)
Cytochrome P450 2C9: B1 Cytochrome P450 2C9
B3: 2C19 (11a): recombinant human cytochrome P450 2C19, clone 11a, amino acid sequence SEQ. ID. No. 1, expressed in yeast (protein)
chain: MDPFVVLVLCLSCLLLLSIWRQSSGRGKLPPGPTPLPVIGNILQIDIKDVSKSLTNLSKIYGPVFTLYFGLERMVVLHGYEVVKEALIDLGEEFSGRGHFPLAERANRGFGIVFSNGKRWKEIRRFSLMTLRNFGMGKRSIEDRVQEEARCLVEELRKTKASPCDPTFILGCAPCNVICSIIFQKRFDYKDQQFLNLMEKLNENIRIVSTPWIQICNNFPTIIDYFPGTHNKLLKNLAFMESDILEKVKEHQESMDINNPRDFIDCFLIKMEKEKQNQQSEFTIENLVITAADLLGAGTETTSTTLRYALLLLLKHPEVTAKVQEEIERVIGRNRSPCMQDRGHMPYTDAVVHEVQRYIDLIPTSLPHAVTCDVKFRNYLIPKGTTILTSLTSVLHDNKEFPNPEMFDPRHFLDEGGNFKKSNYFMPFSAGKRICVGEGLARMELFLFLTFILQNFNLKSLIDPKDLDTTPVVNGFASVPPFYQLCFIPV
B4: 2C18-Thr^385 (29c): recombinant human P450 2C18 allelic variant, clone 29c (Thr at 385), in yeast microsomes; residue 2 not stated in Table III (protein, UniProt P33260 26-490, looked up)
Cytochrome P450 2C18: RGRLPSGPTPLPIIGNILQLDVKDMSKSLTNFSKVYGPVFTVYFGLKPIVVLHGYEAVKEALIDHGEEFSGRGSFPVAEKVNKGLGILFSNGKRWKEIRRFCLMTLRNFGMGKRSIEDRVQEEARCLVEELRKTNASPCDPTFILGCAPCNVICSVIFHDRFDYKDQRFLNLMEKFNENLRILSSPWIQVCNNFPALIDYLPGSHNKIAENFAYIKSYVLERIKEHQESLDMNSARDFIDCFLIKMEQEKHNQQSEFTVESLIATVTDMFGAGTETTSTTLRYGLLLLLKYPEVTAKVQEEIECVVGRNRSPCMQDRSHMPYTDAVVHEIQRYIDLLPTNLPHAVTCDVKFKNYLIPKGTTIITSLTSVLHNDKEFPNPEMFDPGHFLDKSGNFKKSDYFMPFSAGKRMCMGEGLARMELFLFLTTILQNFNLKSQVDPKDIDITPIANAFGRVPPLYQLCFIPV
B5: 2C18-Asp^2 Thr^385 (29c-1a): recombinant human P450 2C18, clone 29c with correct Asp^2, Thr^385 (protein, UniProt P33260 26-490, looked up)
Cytochrome P450 2C18: B4 Cytochrome P450 2C18

How the values were obtained:
Format in all cases: biochemical
[1] = Mephenytoin 4'-hydroxylase assay, recombinant human CYP2C yeast microsomes (Table III); settings: for R/S Ratio: with cytochrome b5
Experimental: (§1) Purified or recombinant yeast microsomes (10-50 pmol) were preincubated with dilauroylphosphatidylcholine (15 μg per 50 pmol P450), P450 reductase (500 U per 50 mol P450), and human cytochrome b5 (2:1 molar ratio when added). The reconstituted mixture was preincubated for 5 min at 37° C., and then placed on ice. A final concentration of 0.4 mM radiolabelled S- or R-mephenytoin (20.7 mCi/mM and 20.9 mCi/mMol) was added to 50 mM HEPES buffer (pH 7.4) containing 0.1 mM EDTA and 1.5 mM MgCl2 for recombinant 2C proteins. The mixture was then incubated at 37° with shaking for 3 min, and the reaction started with the addition of 2mM NADPH and terminated after 30 min with an equal volume of methanol. […] Reaction volumes were generally 0.25 ml except when the volume of recombinant purified cytochrome or yeast microsomes was greater than 50 μl. In these cases, the volume was increased to 0.5 ml to limit the volume of glycerol from the purified preparation to <4% of the final volume.

[2] = Mephenytoin 4'-hydroxylase assay, purified recombinant P450 2C in reconstituted system (Table IV); settings: for stereospecificity of 4'-hydroxylation of mephenytoin: reconstituted system (Table IV); for R/S Ratio / Mephenytoin 4'-Hydroxylase Activity S: purified P450, reconstituted system; for Mephenytoin 4'-Hydroxylase Activity S / Mephenytoin 4'-Hydroxylase Activity R: triplicate, means ± SE, blank not subtracted
Experimental: Recombinant yeast microsomes were prepared from a 10-12 l culture, and recombinant P450s were purified by aminooctylsepharose chromatography as described by Iwasaki et al., J. Biol. Chem. 226:3380-3382 (1991). The Emulgen was then removed from protein by adsorption of the protein to a 4 g hydroxylapatite column (Hypatite C, Clarkson Chemical Company, Williamsport, Pa.) equilibrated with 10 mM potassium phosphate buffer (pH 7.2), 20% glycerol, 0.1 mM EDTA, and 0.1 mM DTT and washing the column with the same buffer until the absorbance at 280 nm returned to zero. The P450 was then eluted with […], and dialyzed overnight against 100 mM potassium phosphate buffer (pH 7.4, 20% glycerol and 0.1 mM EDTA. Absolute and CO difference spectra of purified P450s were determined in the same buffer but containing 0.2% Emulgen and 0.5% cholate.
Mephenytoin 4'-hydroxylase activity was measured by a modification of the radiometric HPLC assay described by Shimada et al., J. Biol. Chem. 261:909-921 (1986), as described below. Purified or recombinant yeast microsomes (10-50 pmol) were preincubated with dilauroylphosphatidylcholine (15 μg per 50 pmol P450), P450 reductase (500 U per […] P450), and human cytochrome b5 (2:1 molar ratio when added). The reconstituted mixture was preincubated for 5 min at 37° C., and then placed on ice. A final concentration of 0.4 mM radiolabelled S- or R-mephenytoin (20.7 mCi/mM and 20.9 mCi/mMol) was added to 50 mM HEPES buffer (pH 7.4) containing 0.1 mM EDTA and 1.5 mM MgCl2 for recombinant 2C proteins. The mixture was then incubated at 37° with shaking for 3 min, and the reaction started with the addition of 2mM NADPH and terminated after 30 min with an equal volume of methanol. Cytochrome b5 was not included in all CYP2C18 reactions, since it had no effect or produced a slight inhibition on the activity of this CYP protein. Reaction volumes were generally 0.25 ml except when the volume of recombinant purified cytochrome or yeast microsomes was greater than 50 μl. In these cases, the volume was increased to 0.5 ml to limit the volume of glycerol from the purified preparation to <4% of the final volume.
At the end of the incubation period, the reactions were terminated with an equal volume of methanol. The incubation mixture was centrifuged at 10,000 g for 10 min and an aliquot assayed directly using HPLC without extraction. Samples with particularly low activity were concentrated by lyophilization and redissolved in a small volume of methanol:water (1:1) before assay. The HPLC system consisted of a reverse phase C18 (10 μm) Versapak, 300 mm×4.1 mm column (Altech Associates, Deerfield, Ill.) using an isocratic solvent consisting of methanol:water (45:55) with a flow rate was kept of 1 ml/min for 25 min. Detection of radioactive peaks was accomplished using an on-line Flow-One radiochemical detector (Radiomatic Instruments Co., Tampa, Fla. Detection of the unlabeled 4'-hydroxymephenytoin authentic standard was performed using an on-line multiwavelength UV detector at both 211 and 230 nm.
Recombinant P450s were purified from yeast microsomes and assays performe

[3] = Tolbutamide hydroxylase assay, recombinant human CYP2C yeast microsomes (Table V); settings: for Tolbutamide Hydroxylase Activity (nmol/min/nmol P450) / Tolbutamide Hydroxylase Activity (nmol/min/mg protein): 1 mg yeast microsomal protein + purified P450 reductase (1,000 units); for Tolbutamide Hydroxylase Activity (nmol/min/mg protein): means ±SE
Experimental: Tolbutamide hydroxylase activity was measured according to Knodell et al., J. Pharmacol. Exper. […] Yeast microsomes (1 mg protein) were preincubated with 300 pmol hamster P450 reductase in 0.2 ml of the incubation buffer (below) for 3 min at 37° C. The reaction was then placed on ice and incubated in 0.2 ml of 50 mM HEPES buffer (pH 7.4) containing 1.5 mM MgCl2, 0.1 mM EDTA in a final volume of 1 ml and 1 mM sodium tolbutamide. The reaction was initiated with 0.5 mM NADPH. Human liver microsomes (0.22 mg protein) were incubated without reductase. Incubations with reconstituted recombinant P450s contained 50 pmol purified P450 enzyme, 150 pmol P450 reductase, and 15 μg dilauroylphosphatidyl-choline, and were performed in 100 mM potassium phosphate buffer (pH 7.4). Reactions were terminated after 60 min at 37° C. by the addition of 50 μl of 4N HCl, followed by extraction with 3 ml of water-saturated ethyl acetate. The ethyl acetate extracts were dried under nitrogen at 40° C., the residue resolubilized in 200 μl methanol, and 4-hydroxytolbutamide then assayed using HPLC by injecting 50 μl of the solubilized extract onto a μBONDAPAK C18 column (4.6×300 mm) using 0.05% phosphoric acid, pH 2.6: acetonitrile (6:4, v/v) as the mobile phase with a flow rate of 1 ml/min. The column eluate was monitored at 230 nm and rates of product formation were determined from standard curves prepared by adding varying amounts of 4-hydroxytolbutamide to incubations conducted without NADPH. […] Samples were analyzed in triplicate.

[4] = Tolbutamide hydroxylase assay, purified recombinant P450 2C (Table IV); settings: purified P450, reconstituted; blank (22 ± 5) subtracted; means ± SE
Experimental: Tolbutamide hydroxylase activity was measured according to Knodell et al., J. Pharmacol. Exper. Ther. 241:1112-1119 (1987), with several modifications. Yeast microsomes (1 mg protein) were preincubated with 300 pmol hamster P450 reductase in 0.2 ml of the incubation buffer (below) for 3 min at 37° C. The reaction was then placed on ice and incubated in 0.2 ml of 50 mM HEPES buffer (pH 7.4) containing 1.5 mM MgCl2, 0.1 mM EDTA in a final volume of 1 ml and 1 mM sodium tolbutamide. The reaction was initiated with 0.5 mM NADPH. Human liver microsomes (0.22 mg protein) were incubated without reductase. Incubations with reconstituted recombinant P450s contained 50 pmol purified P450 enzyme, 150 pmol P450 reductase, and 15 μg dilauroylphosphatidyl-choline, and were performed in 100 mM potassium phosphate buffer (pH 7.4). Reactions were terminated after 60 min at 37° C. by the addition of 50 μl of 4N HCl, followed by extraction with 3 ml of water-saturated ethyl acetate. […] The column eluate was monitored at 230 nm and rates of product formation were determined from standard curves prepared by adding varying amounts of 4-hydroxytolbutamide to incubations conducted without NADPH. […] Samples were analyzed in triplicate.

[5] = Mephenytoin 4'-hydroxylase assay, recombinant human CYP2C yeast microsomes (Table III); settings: recombinant yeast microsomes + P450 reductase, phospholipid, cytochrome b5 2:1; 0.4 mM substrate, HEPES pH 7.4, 37° C. 30 min; means ± SE
Experimental: as §1

[6] = recombinant yeast microsomes + P450 reductase, phospholipid, cytochrome b5 2:1, 0.4 mM substrate, HEPES pH 7.4, 37° C. 30 min, means ± SE

| Molecule | stereospecificity of 4'-hydroxylation of mephenytoin ([2]; purified) | Tolbutamide Hydroxylase Activity (nmol/min/nmol P450) ([3]; adjusted for P450 content) | Mephenytoin 4'-Hydroxylase Activity S [1, 6] | R/S Ratio ([1]; recombinant yeast microsomes) | Mephenytoin 4'-Hydroxylase Activity R [5] | R/S Ratio [2] | Mephenytoin 4'-Hydroxylase Activity S [2] | Mephenytoin 4'-Hydroxylase Activity R [2] | Tolbutamide Hydroxylase Activity (nmol/min/mg protein) [3] | other results |
| --- | --- | --- | --- | --- | --- | --- | --- | --- | --- | --- |
| B1 | not stereospecific |  |  |  |  |  |  |  |  | rate of 4'-hydroxylation of S-mephenytoin ([1]; recombinant yeast microsomes): 0.02 nmol/min/nmol; turnover number higher than the activity of 2C9 purified from human liver ([2]; S-mephenytoin 4'-hydroxylation): ~ 100 times |
| B2 |  | 3.4 ± 0.15 nmol/min/nmol P450 | 0.043 ± 0.000 nmol/min/nmol P450 | 0.9 | 0.041 ± 0.005 nmol/min/nmol P450 | 0.77 | 0.081 ± 0.006 nmol/min/nmol P450 | 0.063 ± 0.003 nmol/min/nmol P450 |  | turnover number for tolbutamide higher than the Leu^359 allele ([3]; recombinant microsomes, adjusted for P450 content): 3 fold; Tolbutamide Hydroxylase Activity [4]: 122 + 29 pmol/min/nmol P450 |
| B3 | stereospecific for the S-enantiomer |  | 4.6 ± 0.3 nmol/min/nmol P450 | 0.03 | 0.014 ± 0.02 nmol/min/nmol P450 | 0.03 | 6.17 ± 0.24 nmol/min/nmol P450 | 0.19 ± 0.04 nmol/min/nmol P450 | 18.4 ± 2.4 nmol/min/mg protein | tolbutamide hydroxylase activity compared with 2C9 ([3]; recombinant yeast microsomes, in words): comparable to that of 2C9; rate of S-hydroxylation higher than that of R-hydroxylation ([1]; recombinant yeast microsomes): at least 30 fold; stereospecificity of 4'-hydroxylation of mephenytoin ([1]; recombinant yeast microsomes (Table III)): stereospecific; Mephenytoin 4'-Hydroxylase Activity S ([1]; recombinant yeast microsomes + P450 reductase, phospholipid, cytochrome b5 2:1, 0.4 mM substrate, HEPES pH 7.4, 37° C. 30 min, means ± SE, listed as 2C19): ~ 5 nmol/min/nmol P450; S-mephenytoin 4'-hydroxylation turnover number higher than that of recombinant 2C9, 2C18 or 2C8 ([2]; purified, reconstituted system): 50-100 times; S-mephenytoin 4'-hydroxylase turnover number higher than reported for P450MP purified from human liver ([2]; versus Srivastava et al. (1991)): ~ 30 times; S-mephenytoin 4'-hydroxylation turnover number higher than that of human liver microsomes ([2]; versus human liver microsomes): at least 10 times |
| B4 |  |  | 0.042 ± 0.004 nmol/min/nmol P450 | 1.3 | 0.054 ± 0.003 nmol/min/nmol P450 |  |  |  |  | Mephenytoin 4'-Hydroxylase Activity S ([1]; recombinant yeast microsomes, no b5): 0.034 ± 0.008 nmol/min/nmol P450 |
| B5 |  | 0.19 ± 0.02 nmol/min/nmol P450 |  |  |  | 1.3 | 0.116 ± 0.010 nmol/min/nmol P450 | 0.147 ± 0.025 nmol/min/nmol P450 | 9.3 ± 0.7 nmol/min/mg protein |  |
